Measured values as given in PMC5803496, “The catalytic inactivation of the N-half of human hexokinase 2 and structural and biochemical characterization of its mitochondrial conformation” (Bioscience Reports, 2018).

Molecular target: the molecule itself
Assay: crystal structure; sitting-drop vapor diffusion, 16% PEG 3350, 0.2 M sodium malonate, 0.1 M Bis-Tris propane pH 8.5, 10% ethylene glycol, 1 mM DTT, 18°C; in complex with glucose and G6P; the dimer is in the asymmetric unit

B1: Δ16 variant of the wild-type human hexokinase 2 (enzyme, UniProt P52789 17-917, looked up)
chain: DQVQKVDQYLYHMRLSDETLLEISKRFRKEMEKGLGATTHPTAAVKMLPTFVRSTPDGTEHGEFLALDLGGTNFRVLWVKVTDNGLQKVEMENQIYAIPEDIMRGSGTQLFDHIAECLANFMDKLQIKDKKLPLGFTFSFPCHQTKLDESFLVSWTKGFKSSGVEGRDVVALIRKAIQRRGDFDIDIVAVVNDTVGTMMTCGYDDHNCEIGLIVGTGSNACYMEEMRHIDMVEGDEGRMCINMEWGAFGDDGSLNDIRTEFDQEIDMGSLNPGKQLFEKMISGMYMGELVRLILVKMAKEELLFGGKLSPELLNTGRFETKDISDIEGEKDGIRKAREVLMRLGLDPTQEDCVATHRICQIVSTRSASLCAATLAAVLQRIKENKGEERLRSTIGVDGSVYKKHPHFAKRLHKTVRRLVPGCDVRFLRSEDGSGKGAAMVTAVAYRLADQHRARQKTLEHLQLSHDQLLEVKRRMKVEMERGLSKETHASAPVKMLPTYVCATPDGTEKGDFLALDLGGTNFRVLLVRVRNGKWGGVEMHNKIYAIPQEVMHGTGDELFDHIVQCIADFLEYMGMKGVSLPLGFTFSFPCQQNSLDESILLKWTKGFKASGCEGEDVVTLLKEAIHRREEFDLDVVAVVNDTVGTMMTCGFEDPHCEVGLIVGTGSNACYMEEMRNVELVEGEEGRMCVNMEWGAFGDNGCLDDFRTEFDVAVDELSLNPGKQRFEKMISGMYLGEIVRNILIDFTKRGLLFRGRISERLKTRGIFETKFLSQIESDCLALLQVRAILQHLGLESTCDDSIIVKEVCTVVARRAAQLCGAGMAAVVDRIRENRGLDALKVTVGVDGTLYKLHPHFAKVMHETVKDLAPKCDVSFLQSEDGSGKGAALITAVACRIREAGQR
notes: wild type; Crystallised in complex with glucose and glucose-6-phosphate; also called Δ16-HK2; HK2; source: E. coli, Champion pET SUMO expression system, purified (nickel-chelating resin, Superdex 200)
  binding result: binds
